Changes are numbered by the printed parent chain. Numbers in names are those of the source. Where “and” joins values, the source holds several entries; their conditions need not be identical. Equal entries are not always repeated. Where two headings read alike, the source gives them in different places.
Tests used:
[1] = Enzyme kinetic analysis of EcCD series fusion proteins, substrate 5-FC; type: biochemical
Description: (§1) FIGS. 11A-11D show the activity and kinetics analysis of EcCD series fusion protein enzymes, and the EcCD series proteins are combined with 5-FC at different concentrations for reaction. Respectively calculate the 5-FU formation reaction rate shown in FIG. 11A, 5-FC consumption reaction rate shown in FIG. 10B, uracil formation reaction rate shown in FIG. 10C and cytosine consumption reaction rate shown in FIG. 10D, substitute Michaelis-Menten formula, and calculate the base mass (Kcat) and Km value catalyzed by each mol enzyme in unit time.

[2] = Enzyme kinetic analysis of EcCD series fusion proteins, substrate cytosine; type: biochemical
Description: as §1, with “time. […]” for “time.”

[3] = Relative substrate selectivity of cytosine deaminase enzyme for 5-FC and cytosine (formula 1); type: biochemical; details: for [Kcat/Km(5-FC)]/{[Kcat/Km(cytosine)] + [Kcat/Km(5-FC)]}: relative substrate selectivity to 5-FC
Description: Evaluation of the relative substrate selectivity of cytosine deaminase enzyme for 5-FC and Cytosine can be expressed by the following formula 1,
The higher the value, the higher the selectivity of the enzyme to the 5-FC substrate.

[4] = system: U87MG, HUVEC and MCF-7 cells; experiment: Immunofluorescence of binding and distribution of EcCD fusion proteins in cells; type: cell-based, human; details: 37° C., 2 hours
Experimental: FIGS. 15A-15C show the binding and distribution of EcCD fusion proteins in U87MG, HUVEC and MCF-7 cell strain. The immunofluorescence staining is used to observe and experiment the EcCD fusion protein, which are respectively acted with U87MG cells in FIG. 15A, HUVEC cells in FIG. 15B and MCF-7 cells in FIG. 15C for 2 hours at 37° C., then fixed with 2% para-formadehyde, the fixed cells are first permeabilized with 0.1% Triton X-100 for 10 minutes, after that, cultured with 1% BSA blocking (dissolved in PBS containing Ca^2+, Mg^2+) for 1 hour at room temperature, then add a 1st antibody (Rabbit anti-His^6tag, Mouse anti-human CD51/61αvβ3 integrin), and then add a 2nd antibody (Anti-rabbit IgG-CF640R, Anti-mouse IgG-Alexa488), the protein distribution is observed by conjugated fluorescence microscope. (Green signal: αvβ3 integrin; red signal: anti-His^6tag; blue signal: Hoechst 33342 cell nucleus stain) (Scale bars: 20 μm)
Immunofluorescence is used to observe the distribution of the protein bound with cell in the cell. U87MG, HUVEC and MCF-7 cells act with culture medium containing EcCD_WT, RGD4C-EcCD_WT, EcCD_D314A and RGD4C-EcCD_D314A proteins at 37° C. for 2 hours, stain the cell, and observe protein distribution by the conjugated fluorescence microscopy.

[5] = literature, Biochemistry 2004, 43, 8957-8964; cited from earlier work

B1: EcCD_WT: E. coli. cytosine deaminase (EcCD), wild type, without target molecule (protein)
chain: MSNNALQTIINARLPGEEGLWQIHLQDGKISAIDAQSGVMPITENSLDAEQGLVIPPFVEPHIHLDTTQTAGQPNWNQSGTLFEGIERWAERKALLTHDDVKQRAWQTLKWQIANGIQHVRTHVDVSDATLTALKAMLEVKQEVAPWIDLQIVAFPQEGILSYPNGEALLEEALRLRADVVGAIPHFEFTREYGVESLHKTFALAQKYDRLIDVHCDEIDDEQSRFVETVAALAHHEGMGARVTASHTTAMHSYNGAYTSRLFRLLKMSGINFVANPLVNIHLQGRFDTYPKRRGITRVKEMLESGINVCFGHDDVFDPWYPLGTANMLQVLHMGLHVCQLMGYGQINDGLNLITHHSARTLNLQDYGIAAGNSANLIILPAENGFDALRRQVPVRYSVRGGKVIASTQPAQTTVYLEQPEAIDYKRLEHHHHHH
modifications: EcCD_WT
notes: E. coli. cytosine deaminase (EcCD), wild type, without target molecule
Kcat ([1]; 5-FC consumption (Table 5)): 9.2 ± 0.8 s⁻¹ and 8.8 ± 0.8 s⁻¹ | Km ([1]; 5-FC consumption (Table 5)): 2800 µM and 2700 µM | Kcat ([1]; 5-FU generation): 8.8 ± 0.9 s⁻¹ and 9.2 ± 0.6 s⁻¹ | Km ([1]; 5-FU generation): 2900 ± 800 µM | Kcat ([2]; cytosine consumption): 132.0 ± 5.0 s⁻¹ | Km ([2]; cytosine consumption): 1300 ± 100 µM | Kcat ([2]; uracil generation): 157.3 ± 2.4 s⁻¹ | Km ([2]; uracil generation): 1600 µM and 1700 µM | [Kcat/Km(5-FC)]/{[Kcat/Km(cytosine)] + [Kcat/Km(5-FC)]} [3]: 0.032 | [Kcat/Km(5-FC)]/{[Kcat/Km(cytosine)] + [Kcat/Km(5-FC)]} ([3]; listed as EcCDWT): 0.033 | binding with cells [4]: do not have the ability of binding with U87MG and HUVEC cells | [Kcat/Km(5-FC)]/{[Kcat/Km(cytosine)] + [Kcat/Km(5-FC)]} [5]: 0.027

B2: EcCD_D314A: E. coli. cytosine deaminase (EcCD) mutant D314A, without target molecule (protein)
chain: B1 chain with D315A
modifications: EcCD_D314A
notes: E. coli. cytosine deaminase (EcCD) mutant D314A, without target molecule
Kcat ([1]; 5-FC consumption (Table 5)): 35.1 ± 1.7 s⁻¹ and 36.2 ± 1.5 s⁻¹ | Km ([1]; 5-FC consumption (Table 5)): 3800 µM and 4000 µM | Kcat ([1]; 5-FU generation): 36.2 ± 1.8 s⁻¹ and 35.4 ± 0.8 s⁻¹ | Km ([1]; 5-FU generation): 3900 ± 600 µM | Kcat/Km higher than that of the corresponding WT protein ([1]; substrate 5-FC): about 3.1 times | Kcat ([2]; cytosine consumption): 22.3 ± 1.6 s⁻¹ | Km ([2]; cytosine consumption): 2600 ± 400 µM | Kcat/Km lower than that of the corresponding WT protein ([2]; substrate cytosine): about 12.5 times | Kcat ([2]; uracil generation): 24.5 ± 1.1 s⁻¹ | Km ([2]; uracil generation): 3000 µM and 3100 µM | relative substrate selectivity to 5-FC higher than the corresponding WT protein [3]: about 17.4 times | [Kcat/Km(5-FC)]/{[Kcat/Km(cytosine)] + [Kcat/Km(5-FC)]} [3]: 0.558 and 0.535 | binding with cells [4]: do not have the ability of binding with U87MG and HUVEC cells | [Kcat/Km(5-FC)]/{[Kcat/Km(cytosine)] + [Kcat/Km(5-FC)]} [5]: 0.513
